Data: IntAct's records for PubMed 31515488

B1: Keratin, type I cytoskeletal 20 (Homo sapiens), P35900 (parent)
chain: MDFSRRSFHRSLSSSLQAPVVSTVGMQRLGTTPSVYGGAGGRGIRISNSRHTVNYGSDLTGGGDLFVGNEKMAMQNLNDRLASYLEKVRTLEQSNSKLEVQIKQWYETNAPRAGRDYSAYYRQIEELRSQIKDAQLQNARCVLQIDNAKLAAEDFRLKYETERGIRLTVEADLQGLNKVFDDLTLHKTDLEIQIEELNKDLALLKKEHQEEVDGLHKHLGNTVNVEVDAAPGLNLGVIMNEMRQKYEVMAQKNLQEAKEQFERQTAVLQQQVTVNTEELKGTEVQLTELRRTSQSLEIELQSHLSMKESLEHTLEETKARYSSQLANLQSLLSSLEAQLMQIRSNMERQNNEYHILLDIKTRLEQEIATYRRLLEGEDVKTTEYQLSTLEERDIKKTRKIKTVVQEVVDGKVVSSEVKEVEENI
B2: U3 small nucleolar RNA-associated protein 25 homolog (Homo sapiens), Q68CQ4 (parent)
chain: MGKRGSRSQSQLLNTLTKKQKKHLRDFGEEHPFYDRVSRKEAKPQICQLSESSDSSDSESDSESEPQQVSGYHRLLATLKNVSEEEEEDEEEEEEEDSIVDDAEMNDEDGGSDVSVEEEMAAESTESPENVALSADPEGKEDGEEPPGTSQTSPEEFTDAKHESLFSLETNFLEEESGDNSSLKASQDPFLQHVNKELKEKAIQAVATNPKTTHELKWPILGQLFFSSKFQKLETFKPPKDIDLKSLHLQKPLESTWTKTNSQFLSGPQKSSSPFTPLQKELFLIMNSYRDLFYPERTALKNGEEIRHVYCLHVINHILKANAQVLGNNSRRRSQKFGVGDDDDFRDQGLTRPKVLIVVPFREAALRVVQLFISLLEGDSKKKIIVSNKKRFQGEYGSDPEERPPNLKRPEDYEAVFVGNIDDHFRIGVAILQRSIRLYAPFYSSDILIASPLGLRTIIGGEGEKKRDFDFLSSIELLIIDQADIYLMQNWEHVLHLMNHMNLLPLDSHGVDFSRVRMWSLNNWSKYYRQTLLFGALQDAQINSVFNKYCVNMQGQVAVRNVPMTGSISHVLVQLPHVFQRMEAENLASVIDARFNFFVNKILPQYRDAVMSHTLIYIPSYFDFVRLRNYFKKEELNFTHICEYTQKSGVSRARHFFLQGEKQFLLFTERFHFYKRYTIKGIRNLIFYELPTYPHFYSEICNMLRATNRGEEATWTCTVLYSKYDAQRLAAVVGVERAAQMLQSNKNVHLFITGEK
B3: Protein FAM9B (Homo sapiens), Q8IZU0 (parent)
chain: MAAWGKKHAGKDPVRDECEERNRFTETREEDVTDEHGEREPFAETDEHTGANTKKPEDTAEDLTAKRKRMKMDKTCSKTKNKSKHALRKKQLKRQKRDYIHSLKLLNVLEEYITDEQKEEEEEEGEEEELIRIFQEQQKKWQQYRSVRRERLKEMKLLRDQFVKALEDFEDLCDRVFSDEDSELDN
partner: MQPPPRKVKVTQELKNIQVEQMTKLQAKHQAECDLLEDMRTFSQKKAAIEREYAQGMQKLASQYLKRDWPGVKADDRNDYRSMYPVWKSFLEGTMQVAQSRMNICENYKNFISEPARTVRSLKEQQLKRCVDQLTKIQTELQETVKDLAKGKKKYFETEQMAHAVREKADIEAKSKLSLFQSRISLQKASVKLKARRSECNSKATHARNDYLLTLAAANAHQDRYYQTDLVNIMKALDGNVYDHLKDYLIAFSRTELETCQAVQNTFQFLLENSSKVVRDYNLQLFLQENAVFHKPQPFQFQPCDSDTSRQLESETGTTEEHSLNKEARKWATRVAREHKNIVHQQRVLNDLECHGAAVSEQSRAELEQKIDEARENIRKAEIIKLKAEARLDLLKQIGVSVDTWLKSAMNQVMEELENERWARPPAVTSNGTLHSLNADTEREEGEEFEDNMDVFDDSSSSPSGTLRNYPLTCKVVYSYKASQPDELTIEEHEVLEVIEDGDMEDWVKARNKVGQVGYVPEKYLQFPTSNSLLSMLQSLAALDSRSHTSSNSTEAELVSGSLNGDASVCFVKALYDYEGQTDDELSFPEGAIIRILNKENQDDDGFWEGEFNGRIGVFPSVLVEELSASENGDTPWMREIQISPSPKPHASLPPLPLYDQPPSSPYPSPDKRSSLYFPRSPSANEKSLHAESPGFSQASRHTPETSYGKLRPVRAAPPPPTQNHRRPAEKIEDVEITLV
B4: G1/S-specific cyclin-D3 (Homo sapiens), P30281 (parent)
chain: MELLCCEGTRHAPRAGPDPRLLGDQRVLQSLLRLEERYVPRASYFQCVQREIKPHMRKMLAYWMLEVCEEQRCEEEVFPLAMNYLDRYLSCVPTRKAQLQLLGAVCMLLASKLRETTPLTIEKLCIYTDHAVSPRQLRDWEVLVLGKLKWDLAAVIAHDFLAFILHRLSLPRDRQALVKKHAQTFLALCATDYTFAMYPPSMIATGSIGAAVQGLGACSMSGDELTELLAGITGTEVDCLRACQEQIEAALRESLREASQTSSSPAPKAPRGSSSQGPSQTSTPTDVTAIHL
B5: RNA-binding protein 15 (Homo sapiens), Q96T37-3 (parent)
chain: MRTAGRDPVPRRSPRWRRAVPLCETSAGRRVTQLRGDDLRRPATMKGKERSPVKAKRSRGGEDSTSRGERSKKLGGSGGSNGSSSGKTDSGGGSRRSLHLDKSSSRGGSREYDTGGGSSSSRLHSYSSPSTKNSSGGGESRSSSRGGGGESRSSGAASSAPGGGDGAEYKTLKISELGSQLSDEAVEDGLFHEFKRFGDVSVKISHLSGSGSGDERVAFVNFRRPEDARAAKHARGRLVLYDRPLKIEAVYVSRRRSRSPLDKDTYPPSASVVGASVGGHRHPPGGGGGQRSLSPGGAALGYRDYRLQQLALGRLPPPPPPPLPRDLERERDYPFYERVRPAYSLEPRVGAGAGAAPFREVDEISPEDDQRANRTLFLGNLDITVTESDLRRAFDRFGVITEVDIKRPSRGQTSTYGFLKFENLDMSHRAKLAMSGKIIIRNPIKIGYGKATPTTRLWVGGLGPWVPLAALAREFDRFGTIRTIDYRKGDSWAYIQYESLDAAHAAWTHMRGFPLGGPDRRLRVDFADTEHRYQQQYLQPLPLTHYELVTDAFGHRAPDPLRGARDRTPPLLYRDRDRDLYPDSDWVPPPPPVRERSTRTAATSVPAYEPLDSLDRRRDGWSLDRDRGDRDLPSSRDQPRKRRLPEESGGRHLDRSPESDRPRKRHCAPSPDRSPELSSSRDRYNSDNDRSSRLLLERPSPIRDRRGSLEKSQGDKRDRKNSASAERDRKHRTTAPTEGKSPLKKEDRSDGSAPSTSTASSKLKSPSQKQDGGTAPVASASPKLCLAWQGMLLLKNSNFPSNMHLLQGDLQVASSLLVEGSTGGKVAQLKITQRLRLDQPKLDEVTRRIKVAGPNGYAILLAVPGSSDSRSSSSSAASDTATSTQRPLRNLVSYLKQKQAAGVISLPVGGNKDKENTGVLHAFPPCEFSQQFLDSPAKALAKSEEDYLVMIIVRAKLVEQRMKIWNSKL
B6: Barrier-to-autointegration factor (Homo sapiens), O75531 (parent)
chain: MTTSQKHRDFVAEPMGEKPVGSLAGIGEVLGKKLEERGFDKAYVVLGQFLVLKKDEDLFREWLKDTCGANAKQSRDCFGCLREWCDAFL
partner: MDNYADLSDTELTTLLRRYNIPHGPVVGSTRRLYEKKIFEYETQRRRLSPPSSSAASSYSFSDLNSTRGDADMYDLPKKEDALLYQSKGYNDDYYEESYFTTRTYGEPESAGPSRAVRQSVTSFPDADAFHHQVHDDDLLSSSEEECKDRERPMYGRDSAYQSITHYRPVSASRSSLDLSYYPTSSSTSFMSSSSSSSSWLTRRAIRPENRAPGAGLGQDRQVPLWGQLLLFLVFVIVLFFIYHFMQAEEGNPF
B7: Peroxisomal bifunctional enzyme (Homo sapiens), Q08426 (parent)
chain: MAEYTRLHNALALIRLRNPPVNAISTTLLRDIKEGLQKAVIDHTIKAIVICGAEGKFSAGADIRGFSAPRTFGLTLGHVVDEIQRNEKPVVAAIQGMAFGGGLELALGCHYRIAHAEAQVGLPEVTLGLLPGARGTQLLPRLTGVPAALDLITSGRRILADEALKLGILDKVVNSDPVEEAIRFAQRVSDQPLESRRLCNKPIQSLPNMDSIFSEALLKMRRQHPGCLAQEACVRAVQAAVQYPYEVGIKKEEELFLYLLQSGQARALQYAFFAERKANKWSTPSGASWKTASARPVSSVGVVGLGTMGRGIVISFARARIPVIAVDSDKNQLATANKMITSVLEKEASKMQQSGHPWSGPKPRLTSSVKELGGVDLVIEAVFEEMSLKKQVFAELSAVCKPEAFLCTNTSALDVDEIASSTDRPHLVIGTHFFSPAHVMKLLEVIPSQYSSPTTIATVMNLSKKIKKIGVVVGNCFGFVGNRMLNPYYNQAYFLLEEGSKPEEVDQVLEEFGFKMGPFRVSDLAGLDVGWKSRKGQGLTGPTLLPGTPARKRGNRRYCPIPDVLCELGRFGQKTGKGWYQYDKPLGRIHKPDPWLSKFLSRYRKTHHIEPRTISQDEILERCLYSLINEAFRILGEGIAASPEHIDVVYLHGYGWPRHKGGPMFYASTVGLPTVLEKLQKYYRQNPDIPQLEPSDYLKKLASQGNPPLKEWQSLAGSPSSKL
partner: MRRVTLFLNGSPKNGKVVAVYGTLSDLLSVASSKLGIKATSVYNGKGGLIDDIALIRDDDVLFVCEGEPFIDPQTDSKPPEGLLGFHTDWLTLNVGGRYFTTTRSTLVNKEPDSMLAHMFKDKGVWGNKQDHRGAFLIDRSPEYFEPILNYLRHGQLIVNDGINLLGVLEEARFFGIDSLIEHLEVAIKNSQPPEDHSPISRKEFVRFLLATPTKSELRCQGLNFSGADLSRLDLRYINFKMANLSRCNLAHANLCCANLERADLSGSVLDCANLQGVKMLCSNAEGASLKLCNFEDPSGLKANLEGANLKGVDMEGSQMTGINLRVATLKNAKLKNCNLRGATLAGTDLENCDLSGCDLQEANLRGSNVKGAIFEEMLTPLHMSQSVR

Variants of: B1
Details: with KRT15, P19012
KRT15, P19012, sequence (P19012 whole entry): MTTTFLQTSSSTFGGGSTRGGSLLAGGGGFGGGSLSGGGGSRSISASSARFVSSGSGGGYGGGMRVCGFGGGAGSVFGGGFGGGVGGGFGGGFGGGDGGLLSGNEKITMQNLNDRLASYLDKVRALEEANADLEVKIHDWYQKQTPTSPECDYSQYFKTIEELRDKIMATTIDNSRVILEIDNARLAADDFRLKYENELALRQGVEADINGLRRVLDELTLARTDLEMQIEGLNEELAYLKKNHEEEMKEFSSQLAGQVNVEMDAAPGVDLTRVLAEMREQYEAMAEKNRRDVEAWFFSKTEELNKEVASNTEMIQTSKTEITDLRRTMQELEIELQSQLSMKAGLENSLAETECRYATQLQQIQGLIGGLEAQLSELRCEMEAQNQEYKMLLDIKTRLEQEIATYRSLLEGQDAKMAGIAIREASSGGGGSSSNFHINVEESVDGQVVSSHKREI

| Variant | effect of a mutation on the interaction |
| --- | --- |
| S309Y | with no effect |
| S129N | with no effect |

Variants of: B1
Details: with vime_human VIM

| Variant | effect of a mutation on the interaction |
| --- | --- |
| S309Y | with no effect |
| S129N | with no effect |

Variants of: B2
Details: with rufy1_human RUFY1, Q96T51
rufy1_human RUFY1, Q96T51, sequence (Q96T51 whole entry): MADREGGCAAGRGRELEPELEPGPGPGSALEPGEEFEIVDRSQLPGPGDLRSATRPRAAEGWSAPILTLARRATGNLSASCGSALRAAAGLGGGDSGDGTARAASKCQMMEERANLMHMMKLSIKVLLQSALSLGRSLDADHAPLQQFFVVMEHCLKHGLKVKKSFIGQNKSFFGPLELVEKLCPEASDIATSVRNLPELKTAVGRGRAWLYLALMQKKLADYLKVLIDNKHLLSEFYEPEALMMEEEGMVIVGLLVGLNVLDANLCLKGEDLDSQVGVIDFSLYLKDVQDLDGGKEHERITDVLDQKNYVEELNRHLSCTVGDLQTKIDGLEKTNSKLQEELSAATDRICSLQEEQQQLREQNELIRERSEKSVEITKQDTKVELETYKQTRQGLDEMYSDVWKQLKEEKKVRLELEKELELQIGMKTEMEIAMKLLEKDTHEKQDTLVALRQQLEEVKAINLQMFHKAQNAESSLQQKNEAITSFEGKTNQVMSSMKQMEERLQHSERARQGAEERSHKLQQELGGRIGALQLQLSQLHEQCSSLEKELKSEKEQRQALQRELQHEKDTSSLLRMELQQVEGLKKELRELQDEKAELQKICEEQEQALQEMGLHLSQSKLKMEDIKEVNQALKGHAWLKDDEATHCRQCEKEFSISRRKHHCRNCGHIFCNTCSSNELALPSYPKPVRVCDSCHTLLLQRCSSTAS

| Variant | effect of a mutation on the interaction |
| --- | --- |
| G111D | with no effect |
| Q67E | with no effect |

Variants of: B2
Details: with cep70_human CEP70, Q8NHQ1
cep70_human CEP70, Q8NHQ1, sequence (Q8NHQ1 whole entry): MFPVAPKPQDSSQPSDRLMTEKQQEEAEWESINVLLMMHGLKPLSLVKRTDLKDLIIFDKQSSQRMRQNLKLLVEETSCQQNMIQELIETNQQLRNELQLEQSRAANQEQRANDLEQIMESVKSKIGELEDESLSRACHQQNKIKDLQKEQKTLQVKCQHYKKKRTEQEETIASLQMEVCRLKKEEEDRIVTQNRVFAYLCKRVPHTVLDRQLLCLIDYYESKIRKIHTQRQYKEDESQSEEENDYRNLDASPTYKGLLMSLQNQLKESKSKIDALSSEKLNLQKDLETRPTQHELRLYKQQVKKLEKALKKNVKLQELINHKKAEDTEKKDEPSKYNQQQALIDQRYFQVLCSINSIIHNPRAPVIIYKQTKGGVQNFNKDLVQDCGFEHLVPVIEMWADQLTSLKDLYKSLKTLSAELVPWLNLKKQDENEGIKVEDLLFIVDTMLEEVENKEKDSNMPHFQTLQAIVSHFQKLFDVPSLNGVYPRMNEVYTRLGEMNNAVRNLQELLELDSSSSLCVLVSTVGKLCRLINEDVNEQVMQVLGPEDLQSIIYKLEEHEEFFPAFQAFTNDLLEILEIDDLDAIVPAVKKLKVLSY

| Variant | effect of a mutation on the interaction |
| --- | --- |
| G111D | with no effect |
| Q67E | with no effect |

Variants of: B2
Details: with trim1_human MID2, Q9UJV3
trim1_human MID2, Q9UJV3, sequence (Q9UJV3 whole entry): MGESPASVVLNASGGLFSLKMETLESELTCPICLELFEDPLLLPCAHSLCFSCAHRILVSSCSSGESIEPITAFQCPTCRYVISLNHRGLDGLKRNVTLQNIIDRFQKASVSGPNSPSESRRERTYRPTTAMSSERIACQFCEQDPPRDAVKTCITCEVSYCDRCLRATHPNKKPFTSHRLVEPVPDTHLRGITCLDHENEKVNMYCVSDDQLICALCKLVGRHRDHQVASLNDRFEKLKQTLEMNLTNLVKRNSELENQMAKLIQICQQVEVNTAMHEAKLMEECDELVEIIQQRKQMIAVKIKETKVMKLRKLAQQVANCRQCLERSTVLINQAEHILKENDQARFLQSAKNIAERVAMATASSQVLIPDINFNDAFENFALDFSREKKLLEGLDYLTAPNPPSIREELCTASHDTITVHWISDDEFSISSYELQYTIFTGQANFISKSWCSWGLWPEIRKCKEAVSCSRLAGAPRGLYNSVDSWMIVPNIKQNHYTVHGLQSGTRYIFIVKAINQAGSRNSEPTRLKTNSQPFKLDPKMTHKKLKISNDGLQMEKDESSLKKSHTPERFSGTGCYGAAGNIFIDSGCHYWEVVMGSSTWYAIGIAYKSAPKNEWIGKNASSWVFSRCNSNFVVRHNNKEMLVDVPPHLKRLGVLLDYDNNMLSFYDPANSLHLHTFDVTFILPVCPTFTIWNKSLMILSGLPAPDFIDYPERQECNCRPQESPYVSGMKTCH

| Variant | effect of a mutation on the interaction |
| --- | --- |
| G111D | with no effect |
| Q67E | with no effect |

Variants of: B3
Details: with fcsd2_human FCHSD2, O94868

| Variant | effect of a mutation on the interaction |
| --- | --- |
| R23H | with no effect |

Variants of: B4
Details: with cdk4_human CDK4, P11802

| Variant | effect of a mutation on the interaction |
| --- | --- |
| S259A | with no effect |
| P134S | with no effect |
| A266V | with no effect |

Variants of: B4
Details: with tfp11_human TFIP11, Q9UBB9
tfp11_human TFIP11, Q9UBB9, sequence (Q9UBB9 whole entry): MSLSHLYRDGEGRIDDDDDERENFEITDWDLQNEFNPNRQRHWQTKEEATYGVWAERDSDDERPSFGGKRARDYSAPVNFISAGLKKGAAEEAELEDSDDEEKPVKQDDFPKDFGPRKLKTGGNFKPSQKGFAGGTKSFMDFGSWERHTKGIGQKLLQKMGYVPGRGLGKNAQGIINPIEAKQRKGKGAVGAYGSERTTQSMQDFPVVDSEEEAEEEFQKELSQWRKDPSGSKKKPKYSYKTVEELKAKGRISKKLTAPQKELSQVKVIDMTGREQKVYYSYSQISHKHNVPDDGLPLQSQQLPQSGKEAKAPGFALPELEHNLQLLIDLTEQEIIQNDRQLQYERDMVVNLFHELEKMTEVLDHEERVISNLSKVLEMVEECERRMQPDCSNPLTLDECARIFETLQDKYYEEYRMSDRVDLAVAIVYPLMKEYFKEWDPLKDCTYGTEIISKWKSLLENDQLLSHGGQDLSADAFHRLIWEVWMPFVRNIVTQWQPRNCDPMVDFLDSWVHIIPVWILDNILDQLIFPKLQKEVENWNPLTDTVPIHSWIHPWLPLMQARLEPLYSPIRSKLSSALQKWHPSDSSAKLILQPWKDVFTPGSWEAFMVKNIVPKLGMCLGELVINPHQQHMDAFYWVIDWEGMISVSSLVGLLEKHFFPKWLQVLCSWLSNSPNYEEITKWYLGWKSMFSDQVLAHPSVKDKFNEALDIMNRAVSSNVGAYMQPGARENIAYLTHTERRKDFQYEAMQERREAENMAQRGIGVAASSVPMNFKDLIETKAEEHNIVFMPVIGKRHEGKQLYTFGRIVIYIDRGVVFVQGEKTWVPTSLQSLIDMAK

| Variant | effect of a mutation on the interaction |
| --- | --- |
| S259A | with no effect |

Variants of: B4
Details: with cdk6_human CDK6, Q00534
cdk6_human CDK6, Q00534, sequence (Q00534 whole entry): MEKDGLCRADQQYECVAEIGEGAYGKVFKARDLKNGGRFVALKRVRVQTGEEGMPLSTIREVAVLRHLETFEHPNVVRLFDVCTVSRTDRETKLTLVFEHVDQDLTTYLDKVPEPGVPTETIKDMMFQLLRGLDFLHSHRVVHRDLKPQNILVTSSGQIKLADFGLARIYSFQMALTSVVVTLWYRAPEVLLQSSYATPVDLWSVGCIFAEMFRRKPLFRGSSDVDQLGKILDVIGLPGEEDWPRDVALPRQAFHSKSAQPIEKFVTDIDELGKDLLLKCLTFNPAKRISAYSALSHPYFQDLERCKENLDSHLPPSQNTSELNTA

| Variant | effect of a mutation on the interaction |
| --- | --- |
| E253D | with no effect |
| P134S | with no effect |
| A266V | with no effect |

Variants of: B4
Details: with cdn1a_human CDKN1A

| Variant | effect of a mutation on the interaction |
| --- | --- |
| E253D | with no effect |

Variants of: B5
Details: with nav2_human NAV2, Q8IVL1

| Variant | effect of a mutation on the interaction |
| --- | --- |
| R961Q | disrupting interaction strength |

Variants of: B6
Details: with emd_human EMD

| Variant | effect of a mutation on the interaction |
| --- | --- |
| A12T | with no effect |

Variants of: B7
Details: with kctd9_human KCTD9, Q7L273

| Variant | effect of a mutation on the interaction |
| --- | --- |
| I646T | disrupting interaction strength |
| R483Q | disrupting interaction strength |
